{"source": "patent US20110008351A1", "key": {"[1]": {"target": "purified human properdin (human) (UniProt P27918)", "sequence (P27918 28-469 limits assumed)": "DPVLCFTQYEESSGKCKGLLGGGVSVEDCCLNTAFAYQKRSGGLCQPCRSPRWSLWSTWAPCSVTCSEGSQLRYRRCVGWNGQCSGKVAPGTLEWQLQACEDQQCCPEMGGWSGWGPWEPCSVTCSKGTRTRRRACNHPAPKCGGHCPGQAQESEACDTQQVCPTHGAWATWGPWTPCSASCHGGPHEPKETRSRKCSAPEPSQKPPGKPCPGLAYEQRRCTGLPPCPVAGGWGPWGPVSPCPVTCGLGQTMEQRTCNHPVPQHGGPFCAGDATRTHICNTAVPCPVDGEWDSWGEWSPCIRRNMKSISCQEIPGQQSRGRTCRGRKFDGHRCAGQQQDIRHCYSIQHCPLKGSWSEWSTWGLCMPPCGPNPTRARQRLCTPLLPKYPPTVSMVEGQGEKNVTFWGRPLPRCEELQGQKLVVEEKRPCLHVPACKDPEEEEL", "assay": "cell-based or functional assay"}, "[2]": {"target": "purified human properdin (human) (UniProt P27918)", "assay": "ELISA, preformed C3bBbP on C3b-coated plates incubated with increasing IRAC II; bound properdin detected with anti-properdin antibody"}, "[3]": {"target": "purified human properdin (human) (UniProt P27918)", "assay": "ELISA, preformed C3bBbP on C3b-coated plates incubated with increasing IxAC-B1; bound properdin detected with anti-properdin antibody"}}, "data": [{"substance": "recombinant IRAC I-V5His (Ixodes ricinus anticomplement protein I)", "values": [{"measurement": "inhibition of alternative pathway haemolysis of rabbit red blood cells by human serum", "setting": "[1]", "result": 85, "unit": "%"}]}, {"substance": "recombinant IRAC II-V5His (Ixodes ricinus anticomplement protein II)", "values": [{"measurement": "percent of pre-bound properdin displaced", "setting": "[2]", "result": 50, "unit": "%"}, {"measurement": "inhibition of alternative pathway haemolysis of rabbit red blood cells by human serum", "setting": "[1]", "result": 85, "unit": "%"}]}, {"substance": "recombinant IxAC-B1-V5His", "values": [{"measurement": "percent of pre-bound properdin displaced", "setting": "[3]", "result": 50, "unit": "%"}, {"measurement": "inhibition of alternative pathway haemolysis of rabbit red blood cells by human serum", "setting": "[1]", "result": 85, "unit": "%"}]}, {"substance": "recombinant IxAC-B2-V5His", "values": [{"measurement": "inhibition of alternative pathway haemolysis of rabbit red blood cells by human serum", "setting": "[1]", "result": 85, "unit": "%"}]}, {"substance": "recombinant IxAC-B3-V5His", "values": [{"measurement": "inhibition of alternative pathway haemolysis of rabbit red blood cells by human serum", "setting": "[1]", "result": 85, "unit": "%"}]}, {"substance": "recombinant IxAC-B4-V5His", "values": [{"measurement": "inhibition of alternative pathway haemolysis of rabbit red blood cells by human serum", "setting": "[1]", "result": 85, "unit": "%"}]}, {"substance": "recombinant IxAC-B5-V5His", "values": [{"measurement": "inhibition of alternative pathway haemolysis of rabbit red blood cells by human serum", "setting": "[1]", "result": 85, "unit": "%"}]}]}
